Measurements from publication PMC3873893.

Target: GST-WWCA (bovine N-WASP WWCA, A403-D505) (bovine) (UniProt Q95107)
UniProt Q95107, sequence (Q95107 403-505): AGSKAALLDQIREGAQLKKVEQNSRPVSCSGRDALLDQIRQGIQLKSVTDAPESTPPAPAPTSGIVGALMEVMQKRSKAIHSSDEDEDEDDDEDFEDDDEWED

Q: With “rabbit skeletal muscle actin (Mg-ATP actin; filament barbed ends) (from UniProt P68135 1-377) (natural protein)” as the substance, how does the barbed-end rate of filaments tethered to WWCA nanofibers, 1 μM actin, 1 mM Mg^2+ read?
A: 21.4 subunits/s
